Molecular target: SNARE complex including SNAP-25, syntaxin and VAMP2 (endogenous, in PC12 cells) (rat (PC12 cells, derived from rats), UniProt P60881 1-206; P32851 1-288; P63045 2-116)
Assay: cell-based or functional assay

Sequence of SNARE complex including SNAP-25, syntaxin and VAMP2 (endogenous, in PC12 cells) (P60881 whole entry, chain 1 of 3): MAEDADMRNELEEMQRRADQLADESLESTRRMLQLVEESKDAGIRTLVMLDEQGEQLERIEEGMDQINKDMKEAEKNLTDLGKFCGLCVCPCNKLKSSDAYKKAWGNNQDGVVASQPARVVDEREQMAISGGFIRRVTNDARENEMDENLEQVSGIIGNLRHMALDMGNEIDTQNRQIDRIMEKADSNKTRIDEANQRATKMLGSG
Sequence of SNARE complex including SNAP-25, syntaxin and VAMP2 (endogenous, in PC12 cells) (P32851 whole entry, chain 2 of 3): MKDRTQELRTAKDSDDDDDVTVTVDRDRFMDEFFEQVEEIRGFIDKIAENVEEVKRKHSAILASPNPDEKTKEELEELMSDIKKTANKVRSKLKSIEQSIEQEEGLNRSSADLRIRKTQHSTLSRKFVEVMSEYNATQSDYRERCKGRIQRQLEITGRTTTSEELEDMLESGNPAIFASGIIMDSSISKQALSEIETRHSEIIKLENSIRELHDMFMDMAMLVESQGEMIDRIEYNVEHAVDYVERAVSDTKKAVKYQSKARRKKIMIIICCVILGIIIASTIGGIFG
Sequence of SNARE complex including SNAP-25, syntaxin and VAMP2 (endogenous, in PC12 cells) (P63045 2-116, chain 3 of 3): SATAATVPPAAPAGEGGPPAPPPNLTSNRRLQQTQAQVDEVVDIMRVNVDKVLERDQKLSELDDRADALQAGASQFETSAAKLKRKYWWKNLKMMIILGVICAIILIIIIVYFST

B1: C2-P7 fusion peptide (IMT-P8 cell membrane-penetrating peptide fused to the N-terminus of P7, h-VAMP2 30-43 aa) (peptide)
peptide: RRWRRWNRFNRRRCRRRLQQTQAQVDEVV
Question: With B1 as the binder, how does the “neurotransmitter (norepinephrine) secretion rate in PC12 cells compared to an untreated group, peptide at 20 µM” value read?
Answer: 56%

B2: P4 peptide, h-VAMP2 (30-46 aa) (peptide)
peptide: RRLQQTQAQVDEVVDIM
Question: With B2 as the binder, how does the “neurotransmitter (norepinephrine) secretion rate in PC12 cells compared to an untreated group, peptide at 20 µM” value read?
Answer: 75%

— patent US20250325468A1 (MEDYTOX, published 2025)
